Assay in all cases: cleavage_in_vitro
In data set [1] the test system is T1, BspQI-HF K279P/R388F (Bacillus sphaericus).
T1 sequence: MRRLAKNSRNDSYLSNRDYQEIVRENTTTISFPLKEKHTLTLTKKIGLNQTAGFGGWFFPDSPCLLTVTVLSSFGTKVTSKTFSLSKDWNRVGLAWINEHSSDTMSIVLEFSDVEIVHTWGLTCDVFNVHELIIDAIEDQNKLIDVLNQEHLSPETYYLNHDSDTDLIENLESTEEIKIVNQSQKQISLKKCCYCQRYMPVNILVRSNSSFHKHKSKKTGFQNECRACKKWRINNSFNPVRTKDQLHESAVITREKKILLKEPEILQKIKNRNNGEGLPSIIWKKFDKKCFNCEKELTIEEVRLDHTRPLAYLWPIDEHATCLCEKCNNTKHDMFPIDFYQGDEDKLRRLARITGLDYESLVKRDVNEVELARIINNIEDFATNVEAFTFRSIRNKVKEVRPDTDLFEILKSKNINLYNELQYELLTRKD
The settings on record: NEB4, 50 C, Mg2+; FI NEB1-3: >=1000, >=1000, >=64.

Data set [2] deals with T2, AvrII-HF Y104F (Anabaena variabilis).
T2 sequence: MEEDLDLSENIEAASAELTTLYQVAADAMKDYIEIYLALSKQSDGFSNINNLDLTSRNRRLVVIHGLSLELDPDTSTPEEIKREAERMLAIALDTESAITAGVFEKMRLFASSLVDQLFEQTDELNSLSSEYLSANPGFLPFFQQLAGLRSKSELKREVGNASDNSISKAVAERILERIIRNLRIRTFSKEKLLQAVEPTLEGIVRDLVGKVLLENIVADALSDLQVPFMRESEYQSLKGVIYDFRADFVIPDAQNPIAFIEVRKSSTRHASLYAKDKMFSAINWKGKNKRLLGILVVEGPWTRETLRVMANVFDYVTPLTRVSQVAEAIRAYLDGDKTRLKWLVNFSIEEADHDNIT
The settings on record: NEB4, 37 C, Mg2+; FI NEB1-3: 500, >=500, >=16.

In data set [3] the test system is T3, AvrII (Anabaena variabilis).
T3 sequence: T2 sequence with F104Y
The settings on record: NEB4, 37 C, Mg2+; FI NEB1-3: 64, 8, 32.

The next data set deals with T4, PvuII (Proteus vulgaris) (UniProt P23657).
T4 sequence: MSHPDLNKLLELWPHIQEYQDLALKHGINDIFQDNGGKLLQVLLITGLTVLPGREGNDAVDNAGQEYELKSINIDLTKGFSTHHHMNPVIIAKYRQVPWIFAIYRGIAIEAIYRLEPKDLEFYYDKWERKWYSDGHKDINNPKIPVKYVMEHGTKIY
The conditions noted are these: NEB4, 37 C, Mg2+; FI NEB1-3: 250, 16, 8.

The target in data set [4] is T5, PvuII-HF T46G (Proteus vulgaris) (UniProt P23657).
T5 sequence: T4 sequence with T46G
The conditions noted are these: NEB4, 37 C, Mg2+; FI NEB1-3: >=250, >=2000, >=250.

Data set [5] concerns the target T6, SalI-HF R107A (Streptomyces albus G) (UniProt Q53608).
T6 sequence: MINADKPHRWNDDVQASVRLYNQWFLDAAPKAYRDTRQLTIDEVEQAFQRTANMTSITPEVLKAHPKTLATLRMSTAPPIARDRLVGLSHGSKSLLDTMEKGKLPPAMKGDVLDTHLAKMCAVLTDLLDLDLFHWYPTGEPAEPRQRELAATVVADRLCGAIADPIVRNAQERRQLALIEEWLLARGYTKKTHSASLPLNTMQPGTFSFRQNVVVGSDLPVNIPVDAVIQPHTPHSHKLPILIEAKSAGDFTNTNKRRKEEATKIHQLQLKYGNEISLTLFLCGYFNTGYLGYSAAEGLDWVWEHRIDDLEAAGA
The conditions noted are these: NEB4, 37 C, Mg2+; FI NEB1-3: >=8000, >=64000, >=4000.

The target in data set [6] is T7, SalI (Streptomyces albus G) (UniProt Q53608).
T7 sequence: T6 sequence with A107R
The conditions noted are these: NEB4, 37 C, Mg2+; FI NEB1-3: 8, 1, 32.

Residue numbers refer to the chain shown, from its start.

Data on four substances can be found in patent US20130115678.

With pUC19, the activity (fidelity index) in data set [1] was greater than 4000.

Consider T7 DNA, for which the figures for the activity (fidelity index) in data set [2] and in data set [3] were greater than 1000 and 32, respectively. Regarding pBR322, the results for the activity (fidelity index) (with PvuII (Proteus vulgaris); in data set [4]) were 0.25 and 500, respectively. Take HindIII-digested lambda DNA: the activity (fidelity index) is greater than 32000 in data set [5] and 1 in data set [6].
